# Reference: the supplement of paper PMC9732359
# ± gives the uncertainty stated by the source.
# Test: protein stability index of a GFP-peptide fusion (yeast GPS) (PSI 1-4); higher = more stable; sorted into four equal gates, so the index is relative within each strain
# How it was run: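 Yeast carrying a pooled library were grown to mid-log phase in leucine-free medium. Each library plasmid expresses Cherry and has a tiled 17-residue yeast protein peptide fused downstream of GFP. Cells were sorted into four equal gates by GFP/Cherry ratio, and plasmids from each gate were PCR-amplified, Illumina-sequenced and assigned to strains by barcode. Summing, across gates, the read frequency times the gate number gave each peptide's protein stability index.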
Sequence,protein stability index (doa10∆),protein stability index (pdr5∆),protein stability index (san1∆),protein stability index (ubr1∆)
EMVENSSENNQIILAYI [SRP68],3.21 ± 0.1,3.11 ± 0.088,2.77 ± 0.08,3.35 ± 0.062
LTQEELERIVQIMQNPT [RPS18A],2.64 ± 0.099,3.08 ± 0.11,2.93 ± 0.064,2.75 ± 0.12
RSEFIESLLNWINRSDG [YJR042W/NUP85],,3.11 ± 0.15,2.77 ± 0.24,3.22 ± 0.22
ISTRERDYLVDTLKLRE [RRP6],3.07 ± 0.076,2.72 ± 0.061,2.97 ± 0.065,3.17 ± 0.06
EKIAAGYMQKPVYATIG [PRP28],2.87 ± 0.19,2.67 ± 0.076,2.67 ± 0.15,2.67 ± 0.094
LLDEEAEQSFDQQSPWL [RPO21],3.27 ± 0.073,3.25 ± 0.065,3.24 ± 0.045,3.08 ± 0.048
ANEDEEEQLDALECRLA [CSN12],,2.65 ± 0.28,,
YFLHLSVFNAELLKLLN [YCS4],1.26 ± 0.053,1.61 ± 0.058,1.8 ± 0.099,1.51 ± 0.053
VISSGPLAAGNFVSEKG [RPC53],2.81 ± 0.093,3.13 ± 0.11,3.14 ± 0.094,2.48 ± 0.078
PLLLVGLDKFSNIDIRV [RPS16A],1.83 ± 0.073,1.76 ± 0.049,1.74 ± 0.094,2.11 ± 0.044
DLKKFTSTITKYKQLLL [RPN3],2.92 ± 0.089,3 ± 0.055,2.91 ± 0.066,3.07 ± 0.045
YSKNNPNLLFSMCGFEV [PRP8],2.96 ± 0.093,2.69 ± 0.093,2.17 ± 0.076,2.4 ± 0.092
SKGSFINIAQMSACVGQ [RPO21],1.44 ± 0.059,1.61 ± 0.053,1.3 ± 0.082,1.67 ± 0.051
YGNDEEVLFYEDNYNPK [RPN4],3.11 ± 0.094,3.2 ± 0.12,3.12 ± 0.097,2.96 ± 0.074
PRQTKKAKAQAQAQAQA [PGD1],3.2 ± 0.077,3.46 ± 0.056,3.22 ± 0.036,3.06 ± 0.059
VALTGLLIRSKTEDPKG [YML031W/NDC1],1.71 ± 0.041,2.21 ± 0.042,1.73 ± 0.052,2.28 ± 0.032
IQISKLHYTPIEDLWQF [RPC82],2.26 ± 0.12,2.27 ± 0.13,2.09 ± 0.12,2.36 ± 0.15
PSTRCKLKLLRMERIKD [RPT2],1.6 ± 0.045,1.68 ± 0.056,1.88 ± 0.089,1.76 ± 0.064
LFQLLNALTVGDFDKFD [RPN9],3.1 ± 0.29,2.36 ± 0.26,,1.8 ± 0.28
RSMDAEQLGHASKRHKP [RPP1],2.55 ± 0.056,2.87 ± 0.053,2.73 ± 0.054,2.74 ± 0.046
EMAEKIDFTLLNRLLRL [PRP8],2.72 ± 0.058,2.93 ± 0.058,2.57 ± 0.054,2.37 ± 0.049
FLGALKYLPHAILKLLE [PRP8],2.12 ± 0.09,1.82 ± 0.061,2.55 ± 0.085,2.16 ± 0.039
DIKAPSTFENRNVGKTL [RPS1A],2.95 ± 0.074,2.72 ± 0.06,3 ± 0.052,3.1 ± 0.057
VDAGIALNSMCASIPIA [RRP46],1.65 ± 0.12,1.63 ± 0.12,1.71 ± 0.15,1.66 ± 0.16
LVPQLGHVGSVQISNIP [PRP8],2.32 ± 0.1,2.3 ± 0.065,1.91 ± 0.12,2.72 ± 0.089
QVRRDIPSAAFNFFEPI [YMR129W/POM152],1.9 ± 0.036,2.23 ± 0.041,1.96 ± 0.049,2.15 ± 0.031
NKKIYQWNKLTSFDIKR [POP6],2.93 ± 0.074,2.95 ± 0.079,2.18 ± 0.2,3.03 ± 0.083

Sequence,protein stability index (doa10∆),protein stability index (pdr5∆),protein stability index (san1∆),protein stability index (ubr1∆)
GKLAKPRQLHNTHWGLV [RPB2],2.85 ± 0.082,2.84 ± 0.071,2.61 ± 0.068,2.94 ± 0.092
HNGSHRTVAGFSNVELP [ARP7],3.1 ± 0.071,2.83 ± 0.07,2.72 ± 0.085,2.8 ± 0.048
VNDNDERAARVVKGRVE [RPO31],3.17 ± 0.16,3.36 ± 0.15,3.15 ± 0.25,3.4 ± 0.091
RKSAPVDSWDREFLKVD [SKP1],3.25 ± 0.13,3.27 ± 0.094,3.04 ± 0.1,3.19 ± 0.078
VEVIKQLSLDASKTNLR [GAL11],2.51 ± 0.063,2.62 ± 0.073,3.24 ± 0.077,2.71 ± 0.049
EATAASHERFFLSQGLH [CSN12],1.43 ± 0.16,1.28 ± 0.1,1.09 ± 0.24,1.35 ± 0.18
NEKLADLGLEKEFQSVD [RPC53],,,2 ± 0.17,
SVLLHHKTMSIVGVLQD [RPT2],1.34 ± 0.074,1.51 ± 0.053,1.37 ± 0.096,1.57 ± 0.042
EETDDEDKQNIEINEDN [RRI2],3.52 ± 0.08,3.25 ± 0.07,3.26 ± 0.045,3.25 ± 0.038
RDYQRINKNSKIALREY [POP4],2.77 ± 0.081,2.29 ± 0.053,2.69 ± 0.076,2.73 ± 0.063
SMQTIAETIILSSAGKN [SRB5],2.09 ± 0.045,2.39 ± 0.048,1.8 ± 0.055,1.9 ± 0.029
VEEAHDFNMKLAINAKT [RPB2],3.09 ± 0.072,3.03 ± 0.085,3.08 ± 0.064,3.08 ± 0.05
EITAKEVYDFTHAVGNN [FAS1],3 ± 0.065,3.15 ± 0.051,2.92 ± 0.046,3.08 ± 0.039
SKIFNESFPDDIPLAKA [CDC53],2.68 ± 0.056,2.89 ± 0.067,2.55 ± 0.049,2.82 ± 0.037
QSLLSLYFEIIHGVLKN [FAS2],2.37 ± 0.12,1.84 ± 0.076,2.14 ± 0.17,1.51 ± 0.045
DLTFKLADILKANISLE [RPO21],2.49 ± 0.068,2.68 ± 0.087,2.46 ± 0.067,2.32 ± 0.047
TSIHSTISILAAPSGNY [RRP43],1.59 ± 0.038,1.85 ± 0.033,1.97 ± 0.05,1.67 ± 0.029
QGSVTVGLRSNTHAVLV [PRE5],1.24 ± 0.033,1.43 ± 0.039,1.75 ± 0.07,1.29 ± 0.037
NSPSKGNSERPSAVAGF [YIL149C/MLP2],3.2 ± 0.087,3.45 ± 0.1,3.1 ± 0.089,3.16 ± 0.11
MERLQRLMMNSKVGSAD [RPN11],3.28 ± 0.15,2.98 ± 0.17,3.42 ± 0.097,3.22 ± 0.12
LVEKVYARFKNDFFPGE [ITC1],3.47 ± 0.091,3.36 ± 0.1,3.05 ± 0.058,3.25 ± 0.077
GQGAFGNMCRGGRMFAP [RPL4A],3.61 ± 0.2,3.06 ± 0.27,3.23 ± 0.067,3.4 ± 0.11
YLACKVEECPQYIRTLV [SSN8],1.25 ± 0.14,1.27 ± 0.14,1.68 ± 0.16,1.96 ± 0.17
ATSDNKTTNTTPSFSFG [YJL041W/NSP1],3.13 ± 0.063,3.05 ± 0.076,3.09 ± 0.032,3.1 ± 0.042
NTNELKEVSSFLMGIFN [MTR3],2.93 ± 0.067,3.06 ± 0.061,2.92 ± 0.061,3.1 ± 0.046
GSSASSRKAHGLNAKQL [POP1],3.21 ± 0.069,3.27 ± 0.084,3.13 ± 0.077,3.04 ± 0.066
ITKLLEINLSKIFQTTP [YCS4],2.58 ± 0.054,2.23 ± 0.044,2.43 ± 0.042,2.6 ± 0.033
